Measured values as given in the nanobody polyreactivity screen of Harvey et al. (2022).

Test: yeast display, Sf9 membrane polyspecificity reagent, FACS + sequencing; frameworks hold sequencing errors
Summary of the method: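 Genes from sorted yeast were amplified by colony PCR, read by MiSeq 2 × 250 sequencing and filtered on CDR length. These cells carried a synthetic nanobody library in Saccharomyces cerevisiae BJ5465 and were sorted by FACS into low and high (top ~1%) gates on anti-HA and streptavidin fluorescence. Polyreactivity is labelled according to the gate of origin.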

Sequence	polyreactivity (PSR sort gate)
QVQLVESGGGLVQAGGSLRLSCAASGFTFYRYAMGWYRQAPGKERELVAAISWSGASTYYADSVKGRFTISRDNAKNTVYLQMNSLKPEDTPVYYCNAYDTYLGGFDYWGQGTQVTVSS	high polyreactivity
QVQLVESGGGLVQAGGSLRLSCAASGSIFKYNDMGWYRQAPGKEREWVAAIRLGGGSTSYADSVKGRFTISRDNAKNTVYLQMNSLKPEDTAVYYCNAYAVYLRYLWYDYWGQGTQVTVSS	low polyreactivity
QVQLVESGGGLVQAGGSLRLSCAASGSTFGNYAMAWYRQAPGKERELVATISRSGGSTYYADSVKGRFTISRDNAKNTVYLLMNSLKPEDTAVYYCNRRYYTRKPDYNSWGQGTQVTVSS	high polyreactivity
QVQLVESGGGLVQAGGSLRLSCAAYGFIVPAYAMGWYRQAPGKERELVAAISWDGGSTYYADSVKGRFTISRDNAKNTVYLQMNSLKPEDTPVYYCAATFFADTWYGWYDYWGQGTQVTVSS	high polyreactivity
QVQLVESGGGLVQAGGSLRLSCAASGFTFDWYAMGWYRQAPGKERELVAAMYYADSVKGRFTISRDNAKNTVYLQMNSLKPEDTAVYYCNAGGYFFPTVYHYGYWGQGTQVTVSS	low polyreactivity
QVQLVESGGGLVQAGASLRLSCAASGFIFGKYAMGWYRQAPGKERELVAAISSSGGSTYYADSVKGRFTISRDTAKNTVYLQMNSLKPEDTAGYYCNAKVRGTNTAGVDYWGQGTQVTVSS	high polyreactivity
QVQLVESGGGLVQAGGSLRLTCAASGSTFRENAMGWNRQAPGKERELVAAITSGGSTYYADSVKGRFTISRDNAKNTVYLQMNSLKPEDTAVYYGNADLEPYDYWGQGTQVTVSS	low polyreactivity
QVQLVESGGGLVQAGGSLRLSCAASGRTFDHNTMGWYRQAPGTERELVAAISWSGGTTYYADSVKGRFTISRDNAKNTGYLQMNSLKPEDTAVYDCAADRSPGSYGYQYDYWGQGTQVTVSS	low polyreactivity
QVQLVESGGGLVQAGGSLRLSCAASGSIFYKYMGWNIQAPGKERELVAAISWSGGRTYYADSVKGRFTISRDNAKNTVYLQMNSLKPEDTAVYYCNRVVLWRIGDKAFEYWGQGTQVTVSS	high polyreactivity
QVQLVESGGGLVQAGGSLRLSCAASGLTFNSYDMGWYRQAPGKERELVAAISSGGVLPNYADSVKGRFTISRDNAKNTVYLQMNSLKPEDTAVYYCAAGYEYDVSDFDYWGQGTQVTVSS	low polyreactivity
QVQLVETGGGLVQAGGSLRLSCAPSGNTIIRYAMGWYRQAPGKERELVAAISYSGGRTYYADSVKGRFTISRDNAKNTVYLQMNSLKPEDTAVYYCNAASRYGGDYWGPGTQVTVSS	high polyreactivity
QDQLVESDAGLVQAGGSLRLSCAASGRIFLGNAMGRSIQPPGNERELVAAITYSGRSTYYSDSVKGRLTISRDNAKNTLYLQMNSLKPEDTAVYYCAARQYWTTDLPFQRYYYWGPGTQVTVSS	low polyreactivity
QVQLQESGGGLVQAGGSLGCAASGNISTRSEMGWYRQAPGKEREFVATINSGGITNYADSVKGRFTISRDNAKNTVYLRMNSLKPEDTAVYYRAVYGYFSDPYDYWGQGTQVTVSC	low polyreactivity
QVQLVESGGALVQAGCSLRLSCAASGRTFGRNTMGWYRQAPGKERELVAGISRSAGRTYYADSVKGRFTISRDNAKNNVYLQMNSLKAEDTAVYYCAARYQGNYRTDKYDYWGQGTQVTVSS	high polyreactivity
QVQLVESGGGLVQAGGSLRLSCAASGRNFLSYMGWYRQAPGKERELVAISRSGTSTYYADSVKGRFTISRDNAKNTVYLQMNSLKPEDTAVYYCAAEVLRDGWWGYYYWGQGTQVTVSS	high polyreactivity
QVQLVESGGGLVQAGGSLRLSCAASGSIFYVYAMGWYRQAPGKERELVATISTGGSTYYADSVKGRFTISRDNAKNTVYLQMNSLKPEDTAVYYCNAQFTPRYRGGYDSWGQCTQVTVSS	low polyreactivity
QFQLVESGRGLVQAGGSLRLSCAASGSIFYSYAMGRYRQAPGKEREFVATISDSSGSTYYADSVKGRFTISRDNAKNTVYLQMNSMIPEDTAVYYCATTDSYGYYGYGDWGQGTQVTVSS	low polyreactivity
QDQLVESGGGLVQAGGSLRLSCAASGITFRYYAKGWYRPSPGKERELLAAISTSGGNTYYADSVKGRLTISRDNAKNTVYLQMKSLKPEDTAVYYCDVDGEYWYEYDGDYWGQGTQVNVSS	low polyreactivity
QVQLVETGGGLVQAGGSLRLSCAASGRIFVFYTKGWYRQAPGKERELVARITGGGSTSYADSVKGRFTISRDNAKNTVYLQMNSLKPEDTAVYYCAAVTRRRYYGHIYGYWGQGTQVTVSS	high polyreactivity
QVQHVESGGGLVQAGGSLRLSCAASGSTFVVYAMGWYRQAPGKERELVAAINWSGGSTYYADSVKGRFTISRDNAKNTVYLQMNSLKPEDTAVYYCSAYGVTYRGDYDYWGQGTQVTVSS	low polyreactivity
QVQLVESGGGLVQAGGSLRLSCAASGSIFYPYAMGWYRQAPGKERELVAAISYSGGITYYADSVKGRFTISRDNAKNTVYLQMNSLKPEDTAVYYCNKLIYFKPAGSHDYWGQGTQVTVSS	high polyreactivity
QVQLVESGGGLVQAGGSLRLSCAASGSTFSVNAMGWYRQAPGKERELVAAITRSGGSTYYEDSVKGRFTISRENAKNTVYLQMNSLKPEDTAVYYCAAVIFPLGEYWGQGTQVTVSS	low polyreactivity

Sequence	polyreactivity (PSR sort gate)
QVQLVESGGGLVQAGGSLRLSCAASGIIFDLYAMGWYRQAPGKERELVAAITYGGGSTYYADSVKGRFTISRDNAKHTVYLQMNSLQPEDTAVYYCAAVPRSGMYYWGQGTQVTVSS	high polyreactivity
QVQLVESGGGLVQAGGSLRLSCAASGSTYRYTMGWYRPAPGKERELVAAITGSAGSTYYADSVKGRFTISRDNAKNTVYLQMHSLKPEDTAVYYCNKVRPRKFWDYYYWGQGTQVTVSS	high polyreactivity
QVQLVESGGGLVQAGGSLRLSCAASGRTFYYYTMGWYRQAPGQERELVAAISVSGGTTYYADSVKGRFTISRDNAKYSVYLQMNSLKPDDTAVYYCAAGDGWGRRYYWGQGTQVNVSS	high polyreactivity
QVQLVESGGGLVQAGGSLRLSCAASGFTSTAYAMGWYRQAPGKERELVAVISSGSSTHYADSVKGRFTISRDNAKNTVYLQMNSLKPEDTAVYYCAARIRTRYFTGFYYWGQGTQVTVSS	high polyreactivity
QVQLVESGGGLVQAGGSLRLSCAASGYIFPRYAMGWYRQAPGKERELVAAISYSGGSTYYADSVKGRFTISRDYAKNTVYLQMNSLKPEDTAVYYCNAYFLSQYQSAYRDDYWGQGTQVTVSS	high polyreactivity
QVQLVESGGGLVQAGGSLRLSCAASGRIFKFYTMGWDRQAPGKERELVASIDSTGGSTYYADSVKGRFTISRDNAKNTVYLQMNSLKPEDTAVYYCAAEWIWSSNWYKKYDYWGQGSQVTVSS	high polyreactivity
QVQLVESGGGLVQAGGSLSLRCASYGSISFINAMGWYRQAPGKEMELVARITWSGGTTYYADSVKGRFTISRDNAKNTVYLQMNSLKPEDTAVYYCAAYIWAPLEGYEYDYWGQGTQVTVSS	high polyreactivity
QVQLVESGGGLVQAGGSLRLSCAASGRIFDSNAMGWYRQAPGTEREFVAAITYSSGSTYYRNSVKGRFTISRDNAKNTVYLQMNSLKPEDTAVYYCAAVLYWRTLSSRYDYWGQGTQVTVSS	high polyreactivity
QVQLVESGGGKVQAGGSLRLSCAPSGSIFFSYAMGWYRQAPGKERELVAAISGSGTSTYYADSVKGRFTISRDNAKNTVYLQMNSLKPEDTAVYYCPTDGGAAWGRYYWDYGYWGQGTQVTVSS	low polyreactivity
QVQLVDSGGGLVQAGGSLRLSCAASGSTLRRYAMGWYRQAPGKERELVAAISGSGDSTYYADSVKGRFTISRDNAKNTVYLQMNSLKPEDTAVYYCNAVYAFNGYDYWGQGTQVTVSS	low polyreactivity
QVQLVESGGGLVQAGGSLRLSCAASGRIFWYNGKGWYRQAPGKERELVAAISYSGGSTNYADSVKGRFTISRDNAKNTVYLQMNSLKPEATAVYYCAAPVPTYHTAWRFFRPDYGYWGQGTQVTVSS	high polyreactivity
QVQLVESGGGLVQAGGSLRLSCAASGSIFEDNVMGWYRQAPGKEREFVADITAIGGSTYYADSVKGRFTISRDNAKNTVYLQMNSLKPEDTAVDYCAAGFYVDYQLYEYWGQGTQVTVSS	high polyreactivity
QVKLVESGGGLVQAGGSLRLSCAASGSIFVGYAIVWYRQAPGKERELVAAISTRGGSTYYADSVKGRFTISRENAKNTVYLKMNSLTPEDTAVYYCAADYLDSTYGYVYGWDDYWGQGTQVTVSS	low polyreactivity
QVQLVESGGGLVQAGGSLRLSCAASGFTFYSNAMGWYRQAPGKERELVAAINWGGGSTYYADSVKGRFTISRDNAKNTVNLQMNSLKPEDTAVYYCAAEPIWEYWNGVSYAYDYWGQGTQVTVSS	low polyreactivity
QVQLVESGRRLVQAGGSLRLSCAASGSTFYGYGMGWYRPAPRQERELVAAITGSGDTTYYADSVKGRFTISRDNAKNTVYLQMNSLKPEDTAVYYCNARWHAEYDYWGQGTQVTVSS	low polyreactivity
QVQLVESGGGLVQAGGSLRLSSAASGSIFTYYAMGGYRQAPGKEREFVAGISWSGGRTYYADSVKARFTISRDNAKNTGYLQMNSLKPEDTAVYYCNRQYRYIPSPFDYGGQGTQVTVSS	low polyreactivity
QVQLVESGGGLVQAGGSLRLSCAASGLIFYDNMGWYRQAPGNERELVAAITVSGGATYYADSVKGRFTISRDNAKNTVYLQMNSLKPEDTAVYYCARELLSPTYQRWYYYWGQGTQVTVSS	low polyreactivity
QDQHVESGGGLVQAGGSLRLSCDASGFIFSYYTMGCYRQAPGKERELVAAIRSSGGSTYADSVKGRFTISRDNAKNTVYLQMTSLKPEDTAVYYCAAVQTWRWVYARDYWGQGTQVTVSS	high polyreactivity
QVQLVESGGGLVQAGGSLRLSCAASGRIFCDNGMGWYRQAPAKESELVTYADSVKGLFTISRDNAKNTVYLQMNSLKPEDTAVYYCNKDPPRFSGLDENYWGQGTQVTVSS	low polyreactivity
QVQLVESGGCLVQAGGSLRLSCAASGSIFSWYGMSWYRQAPGKERELVAAITWGGGSTYYADSVKGRFTISRDNAKNSVYLQMNSLKPEDTAVYYCEVDYWGQCTQVTVSS	low polyreactivity
QVQLVESGGGLVQAGGSLRLSCAASGSIFKIYAMGWYRQAPGKERELVAAITINGGSTYYADSVKGRFTISRDNAKNTVYLLMNSLKPEDTAVYYCAADFFHRAGWYFAYGHWGQGTQVTVSS	low polyreactivity
